# How the values were obtained:
# [1] = target: IAPP-CFP (human IAPP fused in frame with cyan fluorescent protein) (human); test: FRET or BRET; acceptor photobleaching FRET (AB FRET) by confocal microscopy (Leica TCS SP5) of yeast cells co-expressing a CFP fusion (donor) and a YFP fusion (acceptor); acceptor bleached at 514 nm, 100% intensity; cells washed, air-dried on polylysine slides and mounted in …; three independent transformants, at least 100 cells each
# [2] = target: Aβ42-CFP (human Aβ(1-42) fused to CFP) (human) (UniProt P05067); test: as above
# Sequence of IAPP-CFP (human IAPP fused in frame with cyan fluorescent protein) (human) (P10997 8-37): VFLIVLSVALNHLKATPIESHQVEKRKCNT
substance,measurement,setting,value
IAPP-YFP (human IAPP fused in frame with yellow fluorescent protein) (domain or fragment),FRET efficiency,[1],31%
same,FRET efficiency,[2],20%
